# From patent US20060141546A1, “Bacterial test method by glycated label binding” (priority 2002, published 2006)
# Legend:
# [1] = system: Escherichia Coli (E. Coli); assay: Bacteria assay by binding of intestinal ALP (Example 1, FIG. 8, Table 1)
# Description: (§1) Bacterial cells ([…] to 10^8 cells/mL) were washed twice with water after centrifugation to separate the cells into a packed pellet from supernatant liquid. The washed cells in pellet form were suspended in 40 μL water and 10 μL of aqueous bovine intestinal alkaline phosphatase (ALP) was added (2 μg or […]). The mixture was left at room temperature for 30 minutes and then centrifuged, after which the bacterial pellets were washed with water 4-5 times (50 μL). All the washing supernatants were combined. A blank without cells was diluted in the same way. The final pellets were suspended in 50 μl water and both supernatants and cell suspensions were assayed for detection of ALP binding using 2.5 μl of 0.005 M para-nitrophenol phosphate (PNPP) in Tris or EPPS buffer at pH 7.5. The hydrolysis of the substrate results in yellow (PNPP) or blue-green (BCIP) color that is directly proportional to the amount of ALP bound to the bacteria. Alkaline phosphatase (ALP) activity was tested using common substrates such as BCIP (bromo-chloro-indolyl-phosphate) forming a blue/green color in Tris buffer, pH 7.5. After 10 minutes at room temperature the samples were read in a plate reader (Biotek Powerwave Absorbance Reader) at a wavelength of 405 nm. The parallel set of bacteria was run without addition of ALP as controls.
# [2] = system: Enterococcus sp.; assay: ALP binding compared to Sf (Table 1)
# Description: as §1
# (§2) The bacteria used to illustrate the invention represent the extremes of gram positive (S. facaelis) and gram negative (E. coli) bacteria. […] The nature of the difference in the cell walls is greatest between the gram negative and positive forms of bacteria.
# [3] = system: Staphylococcus aureus & saprophyicus; assay: ALP binding compared to Sf (Table 1)
# Description: as §1, §2
# [4] = system: E. coli; assay: Membrane (Loprodyne) separation of bacteria bound ALP (Example 6, Table 4); format: binding
# Description: Bacteria bound to alkaline phosphatase (ALP) can be separated using a membrane (low protein binding Nylon 66 Loprodyne) on backed microtiter plates (Nunc Nalge International).
# The loprodyne-membrane-backed plates were treated with 1 or 2% detergent (Tween 20 or TritonX305) in water or buffers (TBS: Tris, 25 mM, pH 7.6 containing 150 mM NaCl or KCO3: 0.1M, pH 9.6) overnight at room temperature. Blocking solutions were vacuum filtered. […] The combined solution was incubated for 15 min at 37° C. on a shaker and then added to the loprodyne-membrane-backed plate.
# The solution was vacuum filtered leaving bacteria adhered on the membrane and then washed twice with 2% Tween20 in water. To the washed membrane, 200 μl of H2O with 50 μl Glycine (0.05M, pH 10.4) and containing 1 mM PNPP were added and the color formed due to the bacteria bound ALP read at 405 nm.
# The separation of E. Coli with bound ALP from unbound ALP is shown by a size exclusion membrane in Example 6 and by centrifugation in Examples 1-5. The size of E. Coli is 1×1×2 μm and any membrane, filter or device trapping particles of this size would be acceptable. These include microfluidic devices, filters, column chromatography and chromatography strips. The mass of E. Coli is 1.6×10^−12 gm/cell and any membrane, filter or device trapping a mass of this size would be also acceptable.
molecule,measurement,setting,value
"ALP: bovine intestinal alkaline phosphatase, glycoprotein enzyme that binds bacteria and serves as label (protein, UniProt P19111 20-506, looked up) Intestinal-type alkaline …: LVPVEEEDPAFWNRQAAQALDVAKKLQPIQTAAKNVILFLGDGMGVPTVTATRILKGQMNGKLGPETPLAMDQFPYVALSKTYNVDRQVPDSAGTATAYLCGVKGNYRTIGVSAAARYNQCKTTRGNEVTSVMNRAKKAGKSVGVVTTTRVQHASPAGAYAHTVNRNWYSDADLPADAQMNGCQDIAAQLVNNMDIDVILGGGRKYMFPVGTPDPEYPDDASVNGVRKRKQNLVQAWQAKHQGAQYVWNRTALLQAADDSSVTHLMGLFEPADMKYNVQQDHTKDPTLQEMTEVALRVVSRNPRGFYLFVEGGRIDHGHHDDKAYMALTEAGMFDNAIAKANELTSELDTLILVTADHSHVFSFGGYTLRGTSIFGLAPSKALDSKSYTSILYGNGPGYALGGGSRPDVNDSTSEDPSYQQQAAVPQASETHGGEDVAVFARGPQAHLVHGVEEETFVAHIMAFAGCVEPYTDCNLPAPTTATSIPD",ALP binding relative to E. coli,[1]; Escherichia coli,100%
same,ALP binding to bacteria (ALP activity of suspended cells after ALP treatment and washings),"[1]; gram negative, strains # 9 and 14, FIG. 8",found to bind the ALP
same,ALP binding relative to sf.,[2],100%
same,ALP binding relative to sf.,[3],100%
same,Bacteria Binding to ALP (O.D. at 405 nm),"[4]; No Bacteria, ALP concentration 1.0 mU",0.04 O.D.
same,Bacteria Binding to ALP (O.D. at 405 nm),"[4]; No Bacteria, ALP concentration 2.0 mU",0.05 O.D.
same,Bacteria Binding to ALP (O.D. at 405 nm),"[4]; No Bacteria, ALP concentration 5.0 mU",0.16 O.D.
same,Bacteria Binding to ALP (O.D. at 405 nm),"[4]; Plus Bacteria, ALP concentration 1.0 mU",0.13 O.D.
same,Bacteria Binding to ALP (O.D. at 405 nm),"[4]; Plus Bacteria, ALP concentration 2.0 mU",0.30 O.D.
same,Bacteria Binding to ALP (O.D. at 405 nm),"[4]; Plus Bacteria, ALP concentration 5.0 mU",0.83 O.D.
